The text below walks through data of US12030920 (IN3BIO, dated 2024).

This data set deals with the molecule itself. As to the kind of experiment: self-assembly of CT-B subunits, pH shift, SDS-PAGE and Western blot. In general terms: Immunoblotting shows a protein as a band on a membrane.

B1: native CT-B protein (other)
chain: TPQNITDLCAEYHNTQIYTLNDKIFSYTESLAGKREMAIITFKNGAIFQVEVPGSQHIDSQKKAIERMKDTLRIAYLTEAKVEKLCVWNNKTPHAIAAISMAN
With B1, the binding result is on record as “binds”.
